The source of these data is US20260232827A1 (Zymeworks, published 2026).

In assay [1] the target is T1, Construct 7 (NaPi2b del 317-326) (human, UniProt O95436 1-690).
T1 construct: Deletion construct on HEK293-6e cells; also called CL_#29921
T1 sequence: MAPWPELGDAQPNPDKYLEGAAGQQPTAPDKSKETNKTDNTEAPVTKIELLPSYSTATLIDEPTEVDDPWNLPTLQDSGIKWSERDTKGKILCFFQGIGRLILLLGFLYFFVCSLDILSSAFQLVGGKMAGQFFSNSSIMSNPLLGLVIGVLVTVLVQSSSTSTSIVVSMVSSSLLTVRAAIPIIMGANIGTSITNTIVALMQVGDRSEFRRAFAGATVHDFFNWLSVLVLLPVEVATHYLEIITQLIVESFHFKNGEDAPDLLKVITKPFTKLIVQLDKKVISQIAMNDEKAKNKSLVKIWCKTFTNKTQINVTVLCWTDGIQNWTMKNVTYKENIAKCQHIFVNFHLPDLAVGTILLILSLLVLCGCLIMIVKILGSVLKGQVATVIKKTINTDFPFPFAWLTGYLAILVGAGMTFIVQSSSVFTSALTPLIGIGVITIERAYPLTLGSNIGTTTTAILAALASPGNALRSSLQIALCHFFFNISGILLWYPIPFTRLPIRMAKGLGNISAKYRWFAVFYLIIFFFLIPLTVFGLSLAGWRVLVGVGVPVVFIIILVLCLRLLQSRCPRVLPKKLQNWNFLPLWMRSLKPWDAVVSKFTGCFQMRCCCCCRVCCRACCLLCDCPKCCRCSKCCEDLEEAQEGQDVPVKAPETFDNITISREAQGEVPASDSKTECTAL
Kind of assay: flow cytometry, HEK293-6e cells transfected with Construct 7.
Method: Following transfection, cells were seeded at 50,000 cells/well in conical-bottom 96-well plates and treated with a serial dilution of test antibody for 24 hours at 4° C. to prevent internalization. Cells were treated with final concentrations of all humanized antibodies of 200, 20, or 2 nM. Cells were treated with final concentrations of the reference anti-NaPi2a rabbit antibody of 50, 5, or 0.5 nM. […] Following incubation and washing, fluorescence was detected by flow cytometry on a BD LSRFortessa™ Cell Analyzer (BD Biosciences, Franklin Lake, NJ) with 1,000 minimum events collected per well. […] Background-subtracted AF647 Mean Fluorescence Intensity (MFI) values were calculated by subtracting the average MFI of three technical replicates of unstained (no primary antibody) cells.

Assay [2] has as its target T2, human sodium-dependent phosphate transporter 2B (NaPi2b) (human, UniProt O95436 1-690).
T2 construct: UniProt ID is given as 095436 [sic]; also called hNaPi2b; Hu NaPi2b
T2 sequence: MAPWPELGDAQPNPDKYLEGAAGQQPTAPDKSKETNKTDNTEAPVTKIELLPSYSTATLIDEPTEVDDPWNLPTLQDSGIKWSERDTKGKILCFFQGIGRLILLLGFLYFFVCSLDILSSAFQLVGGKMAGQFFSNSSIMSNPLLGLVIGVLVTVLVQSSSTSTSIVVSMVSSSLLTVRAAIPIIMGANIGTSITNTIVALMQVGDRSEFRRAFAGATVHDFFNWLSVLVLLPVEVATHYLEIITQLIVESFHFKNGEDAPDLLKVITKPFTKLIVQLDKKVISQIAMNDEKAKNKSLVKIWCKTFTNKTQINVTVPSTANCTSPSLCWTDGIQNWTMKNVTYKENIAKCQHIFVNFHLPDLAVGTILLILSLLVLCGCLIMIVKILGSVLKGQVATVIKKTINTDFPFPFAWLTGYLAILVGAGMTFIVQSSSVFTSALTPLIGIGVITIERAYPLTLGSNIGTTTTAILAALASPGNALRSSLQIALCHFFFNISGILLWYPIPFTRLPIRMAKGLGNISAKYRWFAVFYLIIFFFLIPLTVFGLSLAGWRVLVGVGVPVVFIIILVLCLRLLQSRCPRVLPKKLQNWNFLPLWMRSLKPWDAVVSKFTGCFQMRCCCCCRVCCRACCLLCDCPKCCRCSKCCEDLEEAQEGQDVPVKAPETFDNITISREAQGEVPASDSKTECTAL
The assay can be described thus: flow cytometry on H441 cells (endogenous NaPi2b), 24 h at 4 C, anti-human IgG Fc AF647, APC-A GeoMean. (In general: A flow cytometer gives signals particle by particle.)
Method: (§1) Cells were maintained under standard culture conditions (37° C./5% CO₂) until assay set-up. […] Cells were removed from culture vessels using Cell Dissociation Buffer (Invitrogen, Waltham, MA), seeded at 50,000 cells/well in conical-bottom 96-well plates, and treated with test antibody or antibody-drug conjugate for 24 hours at 4° C. to prevent internalization. […] Following incubation and washing, fluorescence was detected by flow cytometry on a BD LSRFortessa™ Cell Analyzer (BD Biosciences, Franklin Lake, NJ) with 1,000 minimum events collected per well.

The target of assay [3] is T2, human sodium-dependent phosphate …. The assay can be described thus: flow cytometry on IGROV-1 cells (endogenous NaPi2b), 24 h at 4 C, anti-human IgG Fc AF647, APC-A GeoMean.
Method: as §1

B1: v18993 (lifastuzumab), reference anti-NaPi2b antibody (antibody, human IgG1, kappa)
heavy 1: GEVQLVESGGGLVQPGGSLRLSCAASGFSFSDFAMSWVRQAPGKGLEWVATIGRVAFHTYYPDSMKGRFTISRDNSKNTLYLQMNSLRAEDTAVYYCARHRGFDVGHFDFWGQGTLVTVSSASTKGPSVFPLAPSSKSTSGGTAALGCLVKDYFPEPVTVSWNSGALTSGVHTFPAVLQSSGLYSLSSVVTVPSSSLGTQTYICNVNHKPSNTKVDKKVEPKSCDKTHTCPPCPAPELLGGPSVFLFPPKPKDTLMISRTPEVTCVVVDVSHEDPEVKFNWYVDGVEVHNAKTKPREEQYNSTYRVVSVLTVLHQDWLNGKEYKCKVSNKALPAPIEKTISKAKGQPREPQVYVYPPSRDELTKNQVSLTCLVKGFYPSDIAVEWESNGQPENNYKTTPPVLDSDGSFALVSKLTVDKSRWQQGNVFSCSVMHEALHNHYTQKSLSLSPG
heavy 2: not shown
light: GDIQMTQSPSSLSASVGDRVTITCRSSETLVHSSGNTYLEWYQQKPGKAPKLLIYRVSNRFSGVPSRFSGSGSGTDFTLTISSLQPEDFATYYCFQGSFNPLTFGQGTKVEIKRTVAAPSVFIFPPSDEQLKSGTASVVCLLNNFYPREAKVQWKVDNALQSGNSQESVTEQDSKDSTYSLSSTLTLSKADYEKHKVYACEVTHQGLSSPVTKSFNRGEC
Consider B1, for which the binding result in assay [1] is “no binding (tested: 200 nM)”.

B2: v38591 (humanized anti-NaPi2b antibody, wild-type Fc) (antibody, human IgG1, kappa)
heavy: not shown
light: DVQMTQSPSSLSASVGDRVTITCRASQDVYSYLNWYQQKPGKAVKLLIYYTSRLQSGVPSRFSGSGSGTDYTLTISSLQPEDFATYYCQQYNIFPWTFGQGTKLEIKRTVAAPSVFIFPPSDEQLKSGTASVVCLLNNFYPREAKVQWKVDNALQSGNSQESVTEQDSKDSTYSLSSTLTLSKADYEKHKVYACEVTHQGLSSPVTKSFNRGEC
notes: also called v38591 Wild-type; H1L2
As to B2, the figures for the “EC50 (read off the curve)” value in assay [2] and in assay [3] were about 0.6 nM and about 2 nM, respectively.

One may read the EC50 (read off the curve) as the concentration giving half of the maximal effect. Read a low EC50 (read off the curve) as an effect from little substance.
